The labels stand for the following.
B1: wild-type canine IgG-B Fc polypeptide (SASA tag) (protein, part only; not given: SASA tag, not shown: another chain or arm of the molecule; small tags and cut ends)
Fc: PAPEMLGGPSVFIFPPKPKDTLLIARTPEVTCVVVDLDPEDPEVQISWFVDGKQMQTAKTQPREEQFNGTYRVVSVLPIGHQDWLKGKQFTCKVNNKALPSPIERTISKARGQAHQPSVYVLPPSREELSKNTVSLTCLIKDFFPPDIDVEWQSNGQQEPESKYRTTPPQLDEDGSYFLYSKLSVDKSRWQRGDTFICAVMHEALHNHYTQESLSHSPGK
B2: variant canine IgG-B Fc polypeptide L(23)S (SASA tag) (protein, part only; not given: SASA tag, not shown: another chain or arm of the molecule; small tags and cut ends)
Fc: PAPEMLGGPSVFIFPPKPKDTLSIARTPEVTCVVVDLDPEDPEVQISWFVDGKQMQTAKTQPREEQFNGTYRVVSVLPIGHQDWLKGKQFTCKVNNKALPSPIERTISKARGQAHQPSVYVLPPSREELSKNTVSLTCLIKDFFPPDIDVEWQSNGQQEPESKYRTTPPQLDEDGSYFLYSKLSVDKSRWQRGDTFICAVMHEALHNHYTQESLSHSPGK
B3: variant canine IgG-B Fc polypeptide L(23)M (SASA tag) (protein, part only; not given: SASA tag, not shown: another chain or arm of the molecule; small tags and cut ends)
Fc: PAPEMLGGPSVFIFPPKPKDTLMIARTPEVTCVVVDLDPEDPEVQISWFVDGKQMQTAKTQPREEQFNGTYRVVSVLPIGHQDWLKGKQFTCKVNNKALPSPIERTISKARGQAHQPSVYVLPPSREELSKNTVSLTCLIKDFFPPDIDVEWQSNGQQEPESKYRTTPPQLDEDGSYFLYSKLSVDKSRWQRGDTFICAVMHEALHNHYTQESLSHSPGK
B4: variant canine IgG-B Fc polypeptide L(23)F (SASA tag) (protein, part only; not given: SASA tag, not shown: another chain or arm of the molecule; small tags and cut ends)
Fc: PAPEMLGGPSVFIFPPKPKDTLFIARTPEVTCVVVDLDPEDPEVQISWFVDGKQMQTAKTQPREEQFNGTYRVVSVLPIGHQDWLKGKQFTCKVNNKALPSPIERTISKARGQAHQPSVYVLPPSREELSKNTVSLTCLIKDFFPPDIDVEWQSNGQQEPESKYRTTPPQLDEDGSYFLYSKLSVDKSRWQRGDTFICAVMHEALHNHYTQESLSHSPGK
B5: variant canine IgG-B Fc polypeptide L(23)Y (SASA tag) (protein, part only; not given: SASA tag, not shown: another chain or arm of the molecule; small tags and cut ends)
Fc: PAPEMLGGPSVFIFPPKPKDTLYIARTPEVTCVVVDLDPEDPEVQISWFVDGKQMQTAKTQPREEQFNGTYRVVSVLPIGHQDWLKGKQFTCKVNNKALPSPIERTISKARGQAHQPSVYVLPPSREELSKNTVSLTCLIKDFFPPDIDVEWQSNGQQEPESKYRTTPPQLDEDGSYFLYSKLSVDKSRWQRGDTFICAVMHEALHNHYTQESLSHSPGK

Values joined by “and” are separate entries in the source; they are usually repeats but may differ in a detail not shown here. Equal entries are not always repeated.

This assay deals with canine FcRn with a poly-His tag and canine B2M heterodimer complex (canine). Briefly: SPR (Biacore T200), biotinylated canine FcRn/B2M complex on chip, Fc as analyte, pH 6.0. On the technique in general: SPR reads the build-up and loss of mass on a sensor chip optically.
Sequence of canine FcRn with a poly-His tag and canine B2M heterodimer complex (canine) (chain, as listed by the source limits assumed, chain 1 of 2): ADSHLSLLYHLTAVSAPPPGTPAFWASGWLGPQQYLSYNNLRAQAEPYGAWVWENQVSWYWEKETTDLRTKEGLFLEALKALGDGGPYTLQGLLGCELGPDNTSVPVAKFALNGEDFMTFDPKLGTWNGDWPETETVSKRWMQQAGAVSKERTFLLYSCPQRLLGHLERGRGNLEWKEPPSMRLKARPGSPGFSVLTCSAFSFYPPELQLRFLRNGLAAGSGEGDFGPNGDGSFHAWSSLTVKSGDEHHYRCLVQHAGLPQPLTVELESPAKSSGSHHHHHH
Sequence of canine FcRn with a poly-His tag and canine B2M heterodimer complex (canine) (b2m, as listed by the source limits assumed, chain 2 of 2): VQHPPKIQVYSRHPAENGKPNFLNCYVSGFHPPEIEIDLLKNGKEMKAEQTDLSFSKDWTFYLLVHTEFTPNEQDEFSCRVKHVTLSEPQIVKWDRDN
As usually defined, the koff is a measure of how fast the partners let go of each other. High values mean fast dissociation, low ones slow dissociation. As to B1, the koff came out at 0.122 s⁻¹.

In turn, B2 yielded a koff of 0.241 s⁻¹.

Consider B3, for which the koff was determined as 0.126 s⁻¹.

Turning to B4, the koff is 0.0631 s⁻¹ and 0.0847 s⁻¹.

On to B5, for which the koff is 0.0138 s⁻¹.

These data come from US20240067738A1.
